Data published in paper PMC3534135, “Interaction of the Transactivation Domain of B-Myb with the TAZ2 Domain of the Coactivator p300: Molecular Features and Properties of the Complex” (PLoS ONE, 2012).

Target: T1, B-Myb transactivation domain (residues 275-376) (mouse, UniProt P48972 275-376)
T1 construct: also called B-Myb TAD
T1 sequence (looked up): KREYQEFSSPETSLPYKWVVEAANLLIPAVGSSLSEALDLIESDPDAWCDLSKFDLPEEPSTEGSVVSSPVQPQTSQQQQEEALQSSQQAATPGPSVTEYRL
Test: NMR titration; 15N/1H HSQC of 15N-labelled p300 TAZ2 (100 µM) without and with 100 or 200 µM unlabelled B-Myb TAD; minimal shift approach; 25°C, 600 MHz; 20 mM Bis-Tris, 100 mM NaCl, 5 mM DTT, 20 µM ZnSO4, pH 5.8; Kd estimated from intermediate exchange
Settings: both partners purified

B1: TAZ2 domain of the coactivator p300 (domain or fragment, human, UniProt Q09472 1726-1812, looked up)
chain: SPGDSRRLSIQRCIQSLVHACQCRNANCSLPSCQKMKRVVQHTKGCKRKTNGGCPICKQLIALCCYHAKHCQENKCPVPFCLNIKQK
notes: human p300, TAZ2 domain, residues 1726-1812, corresponding to murine CBP TAZ2; cloned into the NdeI and BamHI sites of pET23a; No tag is stated; also called p300 TAZ2
  Kd: 1 to 10 µM
